This is an account of results in publication PMC4595974.

As usually defined, the Kd is a measure of binding affinity in units of concentration. Low readings indicate a tighter complex, high ones a looser complex.

The target in this test is Aβ42 fibrils (fibrillar Aβ(M1-42)). In words: SPR. (Surface plasmon resonance follows binding to a sensor surface in real time, without labels.)

In turn, “Brichos domain from proSP-C (lung surfactant C precursor protein) (domain or fragment)” registered a Kd of 40 nM.
